Source: paper PMC7354924

Legend:
[1] = molecular target: growth differentiation factor 5 (GDF5), wild type (UniProt P43026); test: SPR; ProteOn XPR36; BMP2 (570 RU), GDF5 (470 RU), TGF-β2 (300 RU) or activin A (350 RU) amine-coupled to a GLC sensor chip; analyte perfused (RGMB 50 to 1.56 nM at 150 or 100 µl/min; BMPR1A 1000 to 31.25 nM at 100 µl/min); 20 mM HEPES pH 7.4, 500 mM NaCl, 3.4 mM EDTA, 0.005% (v/v) Tween 20; 25 °C; Langmuir 1:1 kinetic fit (parameters local for RGMB), Kd = koff/kon; apparent
Target sequence in this assay (P43026 28-501): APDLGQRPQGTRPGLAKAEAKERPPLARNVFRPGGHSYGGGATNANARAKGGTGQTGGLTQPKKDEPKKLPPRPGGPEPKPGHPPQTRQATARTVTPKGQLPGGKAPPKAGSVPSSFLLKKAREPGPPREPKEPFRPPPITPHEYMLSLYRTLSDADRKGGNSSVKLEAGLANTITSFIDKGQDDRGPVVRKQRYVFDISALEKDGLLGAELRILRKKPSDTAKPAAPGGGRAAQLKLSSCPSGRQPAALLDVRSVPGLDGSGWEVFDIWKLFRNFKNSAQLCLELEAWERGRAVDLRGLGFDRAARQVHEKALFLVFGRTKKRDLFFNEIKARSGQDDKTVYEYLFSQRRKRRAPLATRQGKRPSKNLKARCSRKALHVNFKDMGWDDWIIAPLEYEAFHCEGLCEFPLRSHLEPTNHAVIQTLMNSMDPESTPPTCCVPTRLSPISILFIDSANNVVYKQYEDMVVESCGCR

[2] = molecular target: bone morphogenetic protein 2 (BMP2) (UniProt P12643); test: SPR
Sequence of bone morphogenetic protein 2 (BMP2) (P12643 283-396): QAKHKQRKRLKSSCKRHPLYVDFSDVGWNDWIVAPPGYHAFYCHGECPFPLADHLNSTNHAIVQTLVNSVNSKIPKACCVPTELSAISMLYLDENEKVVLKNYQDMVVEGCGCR

[3] = molecular target: growth differentiation factor 5 (GDF5), wild type (UniProt P43026); test: SPR; BMPR1A with BMP2, GDF5 and GDF5 variants; set-up not told for this pair in the main text (values in the discussion, SI Appendix Table S1); taken as the ProteOn set-up with immobilized ligands
Target sequence in this assay (P43026 382-501): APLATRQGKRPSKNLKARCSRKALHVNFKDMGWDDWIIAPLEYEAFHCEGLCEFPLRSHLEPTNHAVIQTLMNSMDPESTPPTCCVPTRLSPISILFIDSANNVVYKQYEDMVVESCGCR

[4] = molecular target: growth differentiation factor 5 (GDF5), wild type (UniProt P43026); test: SPR; Biacore T200, 25 °C; GDF5 amine-coupled to a CM5 chip (830, 970 or 1370 RU); RGMBND variants or BSA as analytes; 0.5 M NaCl, 20 mM HEPES pH 7.4, 0.05% (v/v) Tween 20; Kd from the dose-dependency of equilibrium binding, 1:1 Langmuir isotherm
Target sequence in this assay (P43026 28-501): as the sequence (P43026 28-501) above

[5] = molecular target: bone morphogenetic protein 2 (BMP2) (UniProt P12643)
[6] = molecular target: growth differentiation factor 5 (GDF5), wild type (UniProt P43026); test: SPR; ProteOn XPR36; BMP2 (570 RU) or GDF5 (470 RU) amine-coupled to a GLC sensor chip; ActR2b ectodomain perfused at 6 µM to 187.5 nM, 100 µl/min; 0.005% (v/v) Tween 20 buffer; Kd from the dose-dependency of equilibrium binding, one-site model; apparent
Target sequence in this assay (P43026 28-501): as above

[7] = molecular target: growth differentiation factor 5 (GDF5), wild type (UniProt P43026)
Target sequence in this assay (P43026 382-501): as the sequence (P43026 382-501) above

[8] = molecular target: growth differentiation factor 5 (GDF5), wild type (UniProt P43026); test: SPR; ProteOn XPR36, 25 °C; BMP/TGF-β ligands immobilized on GLC chips by amine coupling, RGM proteins as analytes; 10 mM Hepes pH 7.4, 500 mM NaCl, 3.4 mM EDTA, 0.005% Tween20; 1:1 Langmuir kinetic fit, Kd = koff/kon; apparent Kd
Target sequence in this assay (P43026 382-501): as above

[9] = molecular target: bone morphogenetic protein 2 (BMP2) (UniProt P12643); test: as above

Sequence of BMPR1A ectodomain protein (residues Gln24 to Arg152) (P36894 24-152): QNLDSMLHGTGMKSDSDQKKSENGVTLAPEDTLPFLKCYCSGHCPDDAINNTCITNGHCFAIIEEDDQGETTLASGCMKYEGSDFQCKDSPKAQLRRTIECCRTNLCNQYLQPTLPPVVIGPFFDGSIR
Sequence of murine activin type-2 receptor ActR2b, soluble ectodomain (residues Gly20 to Glu127) (P27040 20-127): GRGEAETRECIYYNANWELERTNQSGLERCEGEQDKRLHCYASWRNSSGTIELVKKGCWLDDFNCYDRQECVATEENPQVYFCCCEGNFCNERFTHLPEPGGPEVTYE

For “BMPR1A ectodomain protein (residues Gln24 to Arg152) (from UniProt P36894 24-152) (receptor)”, the koff [1] was 0.0048 s⁻¹ and the kon [1] was 90000 M⁻¹ s⁻¹.
In the case of “BMPR1A extracellular domain (BMPR1AECD, Thr55–Val141) (receptor)”, the Kd [2] is reported as 59 nM and the Kd [3] is reported as 125 nM.
RGMBND His106Arg (domain or fragment) was tested, and the Kd [4] was > 200000 nM.
Substance “extracellular domain of human RGMB (RGMBECD, Gln53–Ser411) (domain or fragment)” has a BMP2 (3 nM) BMP-responsive luciferase reporter in LLC-PK1 cells expressing full-length membrane-anchored RGMB [5] of 3 fold.
Work on “murine activin type-2 receptor ActR2b, soluble ectodomain (residues Gly20 to Glu127) (from UniProt P27040 20-127)” yielded a Kd [6] of 1300 nM.
“soluble RGMA extracellular domain (RGMAECD) for the ProteOn SPR studies (from UniProt Q96B86 48-424) (domain or fragment)” showed a GDF5 (30 nM) BMP-responsive luciferase reporter in LLC-PK1 cells expressing full-length membrane-anchored RGMA [7] of 2 fold.
“soluble RGMB extracellular domain (RGMBECD) for the ProteOn SPR studies (from UniProt Q6NW40 46-413) (domain or fragment)” gave a Kd [8] of 2.7 nM and a Kd [9] of 4.2 nM.
“soluble RGMC extracellular domain (RGMCECD) for the ProteOn SPR studies (from UniProt Q6ZVN8 36-400) (domain or fragment)” gave a GDF5 (30 nM) BMP-responsive luciferase reporter in LLC-PK1 cells expressing full-length membrane-anchored RGMC [7] of 2 fold.
